# Assay results reported in the DeepSol protein solubility set.
# Assay: soluble on expression in E. coli; label from the status in PepcDB or PDB records
row,Sequence,soluble on expression in E. coli
1,MGNFTFEEMNLMCIYNTGSRTGLIDSLREMRGELSPEETELRELTDSALTKLCAMTDEDFAQLELYPDFDQLEHHHHHH,soluble
2,MGNKIAVIPGTFDPITNGHLDIIERAAKIFDVLYVSVLNNSSKKPLFTVEERMEMIKQVTAHLPNVHVESASGLTVDYAAKRGATAIVRGLRAVSDFEYEMQIASMNRTLNADIETFFVMTNTKYSFLSSSMVKEVAQYQGDIRELVPEVVNKAVKAKFNK,not soluble
3,MGNLCSTSKNEAEPFSRPGRVLGSAANPPPNAAPRAPLPAKSKAPFKSPGRSLGEAAPEVPGAERADARTNAAIAAQVSDTVERSGAALVCGRWLTGECQKRAESAAKAQKGKLGSKLAAQKAQTQAKTLSEVSREQISARHMDESSEARRWN,not soluble
4,MGNRLSKIATRTGDDGTTGLGDGSRVRKDDARIAAIGDVDELNSQIGVLLAEPLPDDVRAALSAIQHDLFDLGGELCIPGHAAITDAHLARLDGWLAHYNGQLPPLEEFILPGGARGAALAHVCRTVCRRAERSIVALGASEPLNAAPRRYVNRLSDLLFVLARVLNRAAGGADVLWDRTRAH,soluble
5,MGNYKFRISEMLPNAWFHKLKDVTKHSKPKNKASSSSSNTCSKKKPSSDSLPQHSYFSNSLVANNPPHHNSPRNSLHTKKMSKRKTLYKPSLKPLTPPPLLVSASFNKSKINDQDSSYSLFPAIETSPESFVYSFYEEDDDDEFVEFSNFKINTKNKAFTKQKVKVIDSVEKACTASKPIKKPQKSHLSVKISRDEDDNEYKAEKKYQRQVSSGRKPSAGINLKRVNSPRIQLSGTRRSTSRRSESKQDVLESFAVMKRSVDPKKDFRESMIEMIEENNIRASKDLEDLLACYLTLNPKEYHDLIIHVFEQIWLQLTKTK,soluble
6,MGQELNKIGIEVLRIVSIRDREEEIMEAVDNAMKRVNIVLVTGGLGPTKDDITKQTLCKYFHTELIFSEEVFENVKRVLAGKIPMNALNKSQAMVPKDCTVINNPVGSASVSWFEKDNKVLVSMPGVPQEMTAVMTESVLPKLREKFQTDVIMHRTFLVQHYPESILAEKLEPWETALPESIKLAYLPKLGIIRLRLTGRGQNKIEVESALNDEQAKLEAILGDDIFSEEDIPLEVIVGELLKKKNLTVSTAESCTGGSIAARLTSIAGSSEYFNGGIVAYSNEVKMNLLHVSPETLEVYGAVSEQTVIEMVKGAMKALKTDCAVATSGIAGPGGGTPEKPVGTVWIAAGYKNEIRTYRQETNRGRAMNIERAGNNALLILRDLLK,not soluble
7,MGQFILEIYKIRIVSQTHLFSKLIFHSFLSFLFNDFSHLSASLPPLIDLSTKKKLLARASEGATSSSSPLPPASTATLSAFRPPARMIPPPVVLPQQYAPLPGFTPLLPAQAMMANFPPNALYQLGTPPFENGNNRIRFKDAAMVVLSRLSFNQRRLDNAHQ,not soluble
8,MGQTLSEPVTKKESASCANENYLVGSSCMQGWRVDMEDAHTHLLSLPDDPKCAFFAVYDGHGGSKVSQYSGINLHKKVVAQKEFSEGNMKEAIEKGFLELDQQMRVDEETKDDVSGTTAVVVLIKEGDVYCGNAGDSRAVSSVVGEARPLSFDHKPSHETEARRIIAAGGWVEFNRVNGNLALSRALGDFAFKNCDTKPAEEQIVTAFPDVITDKLTPDHEFIVLACDGIWDVMTNQEVVDFVREKLAEKRDPQSICEELLTRCLAPDCQMGGLGCDNMTVVLVGLLHGQSPDTLFTKCARPAVFTGVNNEDGDQNQIQQDISRVINNFDGEQRVNAANQEEEEDDNEPAPANFQV,soluble
9,MGRLDGKVIILTAAAQGIGQAAALAFAREGAKVIATDINESKLQELEKYPGIQTRVLDVTKKKQIDQFANEVERLDVLFNVAGFVHHGTVLDCEEKDWDFSMNLNVRSMYLMIKAFLPKMLAQKSGNIINMSSVASSVKGVVNRCVYSTTKAAVIGLTKSVAADFIQQGIRCNCVCPGTVDTPSLQERIQARGNPEEARNDFLKRQKTGRFATAEEIAMLCVYLASDESAYVTGNPVIIDGGWSLG,soluble
10,MGRPRYLAYTRQIAMKSWRKAVVGTQATVGDAIAAIESGSIQIALVLDDQNRLLGVVTDGDVRRGLLRGIPLTGLATDIMNRVPVSAPATLSRDDRLHLMRQKSIKQLPLVDEGGHLVVVETLDELLEPRHYANPVLIMAGGLGERLGALTRDVPKPMLNVGGRPLLETIVRNVVQQGFRNIYISVNYKAETIKDYFADGAAFGANIQYVHETERLGTAGALGLFPAPPDLPMIVTNGDILTTINYGALLDFHNGTPAEATMAVREHKVHVPYGVVSTSDGFLQAIREKPTESWFVSAGIYVIGSSVFGHVAPGVSIDMPTVLERVIAGKGRVAVYPIREYWLDIGRLEDFEQAHAEFHEVFPLEHHHHHH,soluble
11,MGRVAEKVIIIGNNFGNDKSAVTVLFTDNMEKENKAAVVGVDNTTIYCMAPRQAEGFNKITVKVNDQTVVADETFKYSVSENVSTIAGDFVQADGAGKDGSLAEATFGQMFGVACIDEQSGIVGQAWNNNSVRYISIDEDAVITIQSGPVVGKVAVSNDKTLAYGATINGANTVYVYKKSQAWVPSRLSDISSGTDVWAVALNGDNQWLYYVTANGRLGRIEVDNPTHNEILFEHNDFSGGPFAYIAYSAFEDCFYVTTDKNKILKVWVKEDGTHAYEQINQNNTGTTDGFLADEAKFQYLRGLTIDEDGNIFVCQGDNSHVIRKIAYDENMEKRYVTTVLGTSTVHGTDDGSPDIALFNGPQDISYDGNGGYWIAMRYEPALRKYSIELEHHHHHH,soluble
12,MGRWWRYKWITFHPSLTQHWLWYAYNTKTGGVLAYTFGPRNDETCRELLALLTPFCIGMVTSDDWGSYAREVPKEKHLTGKIFTQRIARNNRTLRTRIKRLARKTICFSRSVEIHEKVIGSFIEKHMFYLEHHHHHH,soluble
13,MGSDKIHHHHHHAAAPAFSALGDTASSQARHIATVFPGRMTGTPPEMLSADYLRQQFALMGYQSDVRSFNTRYIYTDSNQRKNWHNATGSTVIAAHEGKVRQQIIIMAHLDTYAPQSDKDVENNLGGLTLQGIDDNAMGLGVLLELAEHLKNVPTRYGIRFIATSGEEEGRLGAQNLLQRMSEAEKKNTLLVINLDNLVVGDKLYFNSGRSTPASVRKLTRDRALAIARSKGIAAYTNPGLNPAYPKGTSCCNDASVFDNAGIPVLSVEATNWSLGKKDGYQQRSKSASFPQGTSWHDVQLDNQQYIDHALPGRIEHRGREVVKVMLPLVKELAKVEKKS,not soluble
14,MGSDKIHHHHHHAACADNADLNEPAGSTTPPAQVLNATVKNLPGAAIIYYDLPDDQNLKYVRASYKVDNMVRTVNASFYTDSLVVEGFPTKGEYDIELYSVSYGEVVSSPLVVKVNPDTPPYQKVRGTLVSAETFGGIRVNFDNPEKAKLGLGVIKKQAEGIWTQVYMHYTEAKGGDFYVRGLDAVTTDFGIFVRDRWGHLSDTLYVTETPLYEEQCDKSLFRKMALPTDSYECHSWNEVTKGNDMTRLWDGITDADPCFQTKTTTVMPQWFTFDMGENYKLSRFVMVSRYYPGKYGNTFKAGHPKHFEIWGSINPNPDGSFDDSWVLLSEYESVKPSGGGVNDALTAEDQEAAKNGENFIIPDNAPAVRYIRFRTNNTWGNTRYMHLHELTFFGAKHN,not soluble
15,MGSDKIHHHHHHAAEKTVVNISKVDGMPWFNRMGEGVVQAGKEFNLNASQVGPSSTDAPQQVKIIEDLIARKVDAITIVPNDANVLEPVFKKARDAGIVVLTNESPGQPSANWDVEIIDNEKFAAEYVEHMAKRMGGKGGYVIYVGSLTVPQHNLWADLLVKYQKEHYPDMHEVTRRMPVAESVDDSRRTTLDLMKTYPDLKAVVSFGSNGPIGAGRAVKEKRAKNKVAVYGMMIPSQAASLIKSGDITEGITYDPATAGYALAAVASTLLNGKTIEPGFELKELGKAEVDSDKHIIRFHKVLLVNKDNIDSLY,not soluble
16,MGSDKIHHHHHHACSGQLDTIQEYLDAGETIYAAKMDSVDIRPGYNRVEVTGLLKYGMDTERCVIHWTPDNDSLVVPVKRIDPVDTFRVFIENLPEGTYQFEIVTYNKSGYRSISTSKGSKTYGDRYISSLRVRSLLSTEVEGENLLLNFSSEMAEALATKVFYLNSAGEKQEQEVARGDNQIKITDWKPRGAYEVKTYYIPEVNAVDTFSVSSTGVFPEKIVEMDKSTFREIILDNDIRLNAWGGALWKAWDNAYENTNYAHSDNTNPIVFPAWFTFDLGEKALLKRFDLFSVVRDDLNYNGGNMKSWEIWGREDEPANSSWDGWTKLITCNSFKPSGKPVGENTDEDNSYIAKGEKFDFPSGIPEVRYIRIKVLDSWSGQGYVQFSEFTFYKSE,not soluble
17,MGSDKIHHHHHHAEEQVYSESEVSTVLSKLEKEAISEAAAEQYTVVDRKEDAWGMKHLKLEKQTEGVTVDSDNVIIHLDRNGAVTSVTGNPVDQVVKIQSVDAIGEEGVKKIIASDNPETKDLVFLAIDKRVNNEGQLFYKVRVTSSPTGDPVSLVYKVNATDGTIMEKQDLTEHVGSEVTLKNSFQVAFNVPVEKSNTGIALHGTDNTGVYHAVVDGKNNYSIIQAPSLVALNQNAVDAYTHGKFVKTYYEDHFQRHSIDDRGMPILSVVDEQHPDAYDNAFWDGKAMRYGETSTPTGKTYASSLDVVGHEMTHGVTEHTAGLEYLGQSGALNESYSDLMGYIISGASNPEIGADTQSVDRKTGIRNLQTPSKHGQPETMAQYDDRARYKGTPYYDQGGVHYNSGIINRIGYTIIQNLGIEKAQTIFYSSLVNYLTPKAQFSDARDAMLAAAKVQYGDEAASVVSAAFNSAGIGAKEDIQVNQPSESVLVNE,not soluble
18,MGSDKIHHHHHHAGEKLVESAAAPRIINIINFIRQTDYRVENADSLLYETVCEQVKLVNKYDLPATFLLQYDALINPLYQDLLKSKLNAHSEIGAWWELTQPQIEAAGIKWRGEHSWVSHANIAFSTGYTKEERERLVDVYMAKFKEIFGTYPKSVGSWFIDAHTLGYMYDKYKIVASCNCKDQVGTDGYTLWGGYWNQAYYPSRVNAYMPAQTEEGQIPVPIFRMLGSDPIYQYDDGLGQERQGVISLEPVYEKAGMDRRWVDYFLESIVNQPCLAFNYAQAGQENSFTWSNMSKGLEMQIPILDSLRKENKIRVETLGESGAWFKECFKVTPPTAVTTLTDVRGEGNKTVWFNSRYYRANLLWERGTFRFRDIHLFDEGYKSAYMEKPGDGNQFLFYTLPVVDGFMWSEGLDRAGLRIVRLDKDGDKEELTLDHPVVTEIGKDTLVVSAEDSKGHPFKITFYETRFEVAALSKEADLSWALELKVAAGKELPFTVIEDKAVNASFDGFNYVITCKKGHIRKPESGSDYVFRILPSDKEIVINCTNTRLNCTHEK,not soluble
19,MGSDKIHHHHHHAGKQNEVELVAEKQLAFPLDEQTYYLSKSMFQFEENGKEYLHFENTQKSLYDIVIFDIENQQIAKRIPLHKTGPNGLPAVFGSRPSPDSQYILVAQNNISRLSSINSQGEIIRNYNFQTPEGRFTPLSFGSYYNAPAFIKDSCIFLRQEILKPDMKKEDWPRTHMFASQDLRTGEVKWIPIFYPPIFKEEYDNIAGGYGFSYDYNYKESRLVCGFFGYDSLMVTDDLKHIRWYNAKSRYLKSMKPKLGNSMEGINAIIKLNENPRYWHIMYDKYRNVYYRFAEMPYKLAPNESPYETPKGKEFSVIVLNADFEIIGETKFPGKKYFYKMSFVGREGLYISENNLENPQFDENKLVFTCFKIKNASPNK,not soluble
20,MGSDKIHHHHHHALSPETGSTSVAVMGRQLYEEMRLDQWVCFDAFMQGLRGSEKIDRKNKDILTLIDFSKPSTAERMVVLDIRQKRILYTSLVSHGKNSGGNYATSFSNENGSHKSSLGFYLTENTYQGRNGYSLILNGLEKGINDLAKQRAIVIHGASYSDPSVAASSGRLGRSFGCPALPVSVSKPIINTIKNGTLLFIYANDKNYLTQSSILSTQQENDIFHEKSYRKVL,not soluble
